test system: Escherichia coli TOP10; test: shrunken log2 fold change of peptide-encoding DNA abundance (4.5 h post-induction vs induction); higher = less antimicrobial activity (less host growth inhibition); details: time post-induction: 4.5 h; library: site-saturation at positions 5, 18, 19, 20
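Also: peptides expressed intracellularly from a pBAD plasmid library in pooled LB shake-flask culture, induced with 0.3% L-arabinose, DNA abundance read by NGS, three biological replicates, DESeq2 with apeglm shrinkage.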

| Sequence | shrunken log2 fold change |
| --- | --- |
| RRIRPRPPRLPRPRPRPFCDPRP | -0.233 |
| RRIRCRPPRLPRPRPRPIHDPRP | -0.264 |
| RRIRLRPPRLPRPRPRPVYIPRP | -0.258 |
| RRIRRRPPRLPRPRPRPLILPRP | 0.0353 |
| RRIRVRPPRLPRPRPRPATGPRP | 0.119 |
| RRIRDRPPRLPRPRPRPQNYPRP | -0.589 |
| RRIRNRPPRLPRPRPRPGAEPRP | 0.374 |
| RRIRVRPPRLPRPRPRPGPIPRP | 0.0476 |
| RRIRWRPPRLPRPRPRPDSTPRP | -0.0382 |
| RRIRKRPPRLPRPRPRPLILPRP | -0.265 |
| RRIRFRPPRLPRPRPRPLGIPRP | -0.869 |
| RRIRKRPPRLPRPRPRPVVGPRP | 0.686 |
| RRIRARPPRLPRPRPRPNYPPRP | -0.144 |
| RRIRQRPPRLPRPRPRPHMWPRP | -0.129 |
| RRIRMRPPRLPRPRPRPIMQPRP | 0.0343 |
| RRIRERPPRLPRPRPRPRDLPRP | 0.023 |
| RRIRSRPPRLPRPRPRPMFVPRP | -0.0773 |
| RRIRGRPPRLPRPRPRPSCMPRP | 0.336 |
| RRIRRRPPRLPRPRPRPLIPPRP | -0.0124 |
| RRIRFRPPRLPRPRPRPIKEPRP | -0.113 |
| RRIRKRPPRLPRPRPRPLIAPRP | 0.456 |
| RRIRMRPPRLPRPRPRPNQDPRP | -0.123 |
| RRIRWRPPRLPRPRPRPYHIPRP | -0.96 |
| RRIRVRPPRLPRPRPRPGYSPRP | -0.553 |
| RRIRERPPRLPRPRPRPEVVPRP | 0.122 |

| Sequence | shrunken log2 fold change |
| --- | --- |
| RRIRPRPPRLPRPRPRPWNMPRP | -0.189 |
| RRIRKRPPRLPRPRPRPCDHPRP | 0.0248 |
| RRIRGRPPRLPRPRPRPGQVPRP | 0.11 |
| RRIRFRPPRLPRPRPRPHHRPRP | -0.401 |
| RRIRTRPPRLPRPRPRPWIYPRP | -0.0134 |
| RRIRCRPPRLPRPRPRPAVKPRP | -0.132 |
| RRIRHRPPRLPRPRPRPVFHPRP | -0.345 |
| RRIRWRPPRLPRPRPRPEPMPRP | 0.38 |
| RRIRKRPPRLPRPRPRPQWVPRP | 0.0548 |
| RRIRERPPRLPRPRPRPAHEPRP | 0.0932 |
| RRIRYRPPRLPRPRPRPRQFPRP | -0.379 |
| RRIRFRPPRLPRPRPRPQTRPRP | 0.149 |
| RRIRWRPPRLPRPRPRPWAQPRP | -0.381 |
| RRIRPRPPRLPRPRPRPGRWPRP | 0.551 |
| RRIRHRPPRLPRPRPRPRIYPRP | -0.584 |
| RRIRCRPPRLPRPRPRPHEEPRP | 0.0524 |
| RRIRCRPPRLPRPRPRPPMRPRP | 0.945 |
| RRIRYRPPRLPRPRPRPFSAPRP | -1.07 |
| RRIRQRPPRLPRPRPRPAGHPRP | 0.000618 |
| RRIRLRPPRLPRPRPRPCAWPRP | -0.005 |
| RRIRNRPPRLPRPRPRPLNEPRP | -0.233 |
| RRIRNRPPRLPRPRPRPCRHPRP | -0.149 |
| RRIRVRPPRLPRPRPRPCRAPRP | 0.0373 |
| RRIRARPPRLPRPRPRPQGRPRP | 0.104 |
| RRIRHRPPRLPRPRPRPSNLPRP | -0.289 |

| Sequence | shrunken log2 fold change |
| --- | --- |
| RRIRYRPPRLPRPRPRPGNMPRP | -0.55 |
| RRIRYRPPRLPRPRPRPHRPPRP | 0.0424 |
| RRIRIRPPRLPRPRPRPHIEPRP | -0.0878 |
| RRIRYRPPRLPRPRPRPAHHPRP | -0.602 |
| RRIRQRPPRLPRPRPRPIVIPRP | 0.0668 |
| RRIRRRPPRLPRPRPRPHQEPRP | -0.0374 |
| RRIRGRPPRLPRPRPRPFDSPRP | 0.0127 |
| RRIRDRPPRLPRPRPRPFHQPRP | -0.0388 |
| RRIRCRPPRLPRPRPRPMCFPRP | 0.00335 |
| RRIRPRPPRLPRPRPRPNYGPRP | 0.111 |
| RRIRPRPPRLPRPRPRPTFFPRP | 0.212 |
| RRIRKRPPRLPRPRPRPWFVPRP | -0.036 |
| RRIRHRPPRLPRPRPRPKCQPRP | -0.0621 |
| RRIRFRPPRLPRPRPRPFHQPRP | -0.192 |
| RRIRYRPPRLPRPRPRPMMKPRP | -0.0161 |
| RRIRVRPPRLPRPRPRPSQYPRP | -0.389 |
| RRIRDRPPRLPRPRPRPRIAPRP | 0.114 |
| RRIRRRPPRLPRPRPRPLRPPRP | 1.18 |
| RRIRCRPPRLPRPRPRPNVYPRP | -0.53 |
| RRIRRRPPRLPRPRPRPISKPRP | -0.198 |
| RRIRTRPPRLPRPRPRPYTVPRP | -0.0341 |
| RRIRGRPPRLPRPRPRPCYQPRP | 0.219 |
| RRIRVRPPRLPRPRPRPCEFPRP | -0.242 |
| RRIRSRPPRLPRPRPRPAHTPRP | -0.379 |
| RRIRSRPPRLPRPRPRPVYVPRP | -0.525 |

| Sequence | shrunken log2 fold change |
| --- | --- |
| RRIRNRPPRLPRPRPRPCDPPRP | -0.114 |
| RRIRGRPPRLPRPRPRPTVPPRP | 0.433 |
| RRIRFRPPRLPRPRPRPPYPPRP | -0.0265 |
| RRIRFRPPRLPRPRPRPWPWPRP | -0.00192 |
| RRIRARPPRLPRPRPRPSEDPRP | 0.396 |
| RRIRVRPPRLPRPRPRPVNPPRP | -0.464 |
| RRIRNRPPRLPRPRPRPSCMPRP | -0.755 |
| RRIRSRPPRLPRPRPRPKSGPRP | 0.0485 |
| RRIRQRPPRLPRPRPRPEHCPRP | -0.199 |
| RRIRWRPPRLPRPRPRPWSCPRP | -0.169 |
| RRIRHRPPRLPRPRPRPRNKPRP | -0.2 |
| RRIRRRPPRLPRPRPRPFELPRP | -0.249 |
| RRIRERPPRLPRPRPRPRAGPRP | 0.459 |
| RRIRCRPPRLPRPRPRPFFPPRP | -0.167 |
| RRIRVRPPRLPRPRPRPIFEPRP | 0.149 |
| RRIRWRPPRLPRPRPRPDQYPRP | -0.154 |
| RRIRQRPPRLPRPRPRPELHPRP | 0.0795 |
| RRIRGRPPRLPRPRPRPLQVPRP | 0.458 |
| RRIRTRPPRLPRPRPRPSVGPRP | -0.055 |
| RRIRARPPRLPRPRPRPWRDPRP | 0.225 |
| RRIRGRPPRLPRPRPRPKFIPRP | -0.425 |
| RRIRDRPPRLPRPRPRPLKKPRP | 0.31 |
| RRIRERPPRLPRPRPRPGTVPRP | -0.973 |
| RRIRRRPPRLPRPRPRPPIMPRP | -0.0528 |
| RRIRKRPPRLPRPRPRPDAWPRP | -0.0106 |

| Sequence | shrunken log2 fold change |
| --- | --- |
| RRIRVRPPRLPRPRPRPNNVPRP | -0.117 |
| RRIRSRPPRLPRPRPRPNWLPRP | 0.18 |
| RRIRCRPPRLPRPRPRPCQMPRP | -0.609 |
| RRIRWRPPRLPRPRPRPIRVPRP | 0.0983 |
| RRIRIRPPRLPRPRPRPWNQPRP | 0.00812 |
| RRIRCRPPRLPRPRPRPEWDPRP | 0.309 |
| RRIRDRPPRLPRPRPRPWPFPRP | 0.0405 |
| RRIRTRPPRLPRPRPRPARFPRP | 0.128 |
| RRIRNRPPRLPRPRPRPPTQPRP | 0.267 |
| RRIRPRPPRLPRPRPRPGTNPRP | 1.46 |
| RRIRPRPPRLPRPRPRPWMDPRP | -0.934 |
| RRIRGRPPRLPRPRPRPYTEPRP | -0.0586 |
| RRIRSRPPRLPRPRPRPVSGPRP | 0.00238 |
| RRIRYRPPRLPRPRPRPPEVPRP | -0.142 |
| RRIRLRPPRLPRPRPRPWLNPRP | -0.183 |
| RRIRWRPPRLPRPRPRPIINPRP | -0.609 |
| RRIRIRPPRLPRPRPRPTNAPRP | -0.0508 |
| RRIRYRPPRLPRPRPRPTHTPRP | 0.049 |
| RRIRCRPPRLPRPRPRPDSCPRP | 0.0373 |
| RRIRYRPPRLPRPRPRPHNNPRP | -1.16 |
| RRIRGRPPRLPRPRPRPRYAPRP | 0.399 |
| RRIRQRPPRLPRPRPRPWVIPRP | -0.134 |
| RRIRNRPPRLPRPRPRPISKPRP | -0.472 |
| RRIRRRPPRLPRPRPRPIYWPRP | 0.08 |
| RRIRDRPPRLPRPRPRPKQSPRP | 0.00791 |

| Sequence | shrunken log2 fold change |
| --- | --- |
| RRIRGRPPRLPRPRPRPEKCPRP | 0.599 |
| RRIRPRPPRLPRPRPRPQKSPRP | 0.0462 |
| RRIRARPPRLPRPRPRPTAHPRP | 0.485 |
| RRIRRRPPRLPRPRPRPAYDPRP | 0.0406 |
| RRIRYRPPRLPRPRPRPMGKPRP | -0.452 |
| RRIRDRPPRLPRPRPRPDQHPRP | 0.132 |
| RRIRYRPPRLPRPRPRPQEAPRP | -0.029 |
| RRIRGRPPRLPRPRPRPDGKPRP | 0.0293 |
| RRIRWRPPRLPRPRPRPTPAPRP | 0.584 |
| RRIRKRPPRLPRPRPRPLMVPRP | 0.0242 |
| RRIRWRPPRLPRPRPRPEPQPRP | 0.818 |
| RRIRYRPPRLPRPRPRPLYVPRP | -0.465 |
| RRIRPRPPRLPRPRPRPYKVPRP | -0.338 |
| RRIRQRPPRLPRPRPRPQRQPRP | 0.0235 |
| RRIRCRPPRLPRPRPRPNPMPRP | -0.246 |
| RRIRYRPPRLPRPRPRPCPLPRP | -1.91 |
| RRIRRRPPRLPRPRPRPVLKPRP | 0.267 |
| RRIRGRPPRLPRPRPRPMCFPRP | 0.716 |
| RRIRFRPPRLPRPRPRPTRWPRP | 0.117 |
| RRIRFRPPRLPRPRPRPQMHPRP | -0.332 |
| RRIRQRPPRLPRPRPRPHIMPRP | -0.669 |
| RRIRKRPPRLPRPRPRPCRMPRP | -0.00386 |
| RRIRSRPPRLPRPRPRPTEGPRP | 0.139 |
| RRIRMRPPRLPRPRPRPEYDPRP | 2.81 |
| RRIRIRPPRLPRPRPRPGDGPRP | 0.281 |
